Series [1] concerns the target T1, human IgE (Homo sapiens, UniProt P01854-1 P01854-1:1-428). Description: filter; modified PBS, 1 mM Mg2+, 37 C; D31.0 taken as clone D031. Particulars: tags: Athens Research Technology; chain copies: 2; label: 5' 32P.
Series [2] concerns the target T1, human IgE. Description: filter; modified PBS, 1 mM Mg2+, 37 C; D11.0 taken as clone D011. Particulars: tags: Athens Research Technology; chain copies: 2; label: 5' 32P.
For series [3], the target named is T2, TAN IgE (chimeric: murine light chains and variable region, human heavy-chain constant region) (Mus musculus/Homo sapiens chimera, UniProt P01854-1 P01854-1:1-428).
T2 chain: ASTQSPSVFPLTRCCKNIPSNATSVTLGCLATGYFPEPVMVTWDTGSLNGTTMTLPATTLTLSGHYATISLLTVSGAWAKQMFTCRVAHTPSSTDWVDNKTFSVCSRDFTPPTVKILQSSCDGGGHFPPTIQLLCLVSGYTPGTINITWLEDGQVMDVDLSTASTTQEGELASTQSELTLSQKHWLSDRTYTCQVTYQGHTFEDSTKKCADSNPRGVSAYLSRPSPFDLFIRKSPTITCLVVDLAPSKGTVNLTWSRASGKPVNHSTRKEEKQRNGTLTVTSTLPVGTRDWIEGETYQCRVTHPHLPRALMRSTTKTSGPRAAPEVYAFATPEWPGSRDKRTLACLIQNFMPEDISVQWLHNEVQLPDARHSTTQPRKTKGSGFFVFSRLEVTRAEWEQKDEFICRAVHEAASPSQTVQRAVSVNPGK
The experiment in a line: inhibition; inhibits IgE binding to FceRI on RBL SX-38 cells, ELISA. The settings on record: tags: biotinylated in the receptor assay, gift of Dr. Kinet (NIH), chain copies: 2, label: 5' 32P. The procedure: A cell-based enzyme linked immunosorbent assay (ELISA) was used to measure the ability of the high-affinity DNA ligands to inhibit binding of IgE to the FcεRI receptor. Rat basophilic leukemia (RBL) cell-line SX-38 which expresses the α, β and γ subunits of the human FcεRI receptor was plated at a concentration of 10^5 cells per well in 96 well flat-bottom microtiter plates. After overnight growth, the cells were washed three times in modified PBS and incubated for one hour at 37° C. in 30 µl of 1.5 µg/ml biotinylated TAN IgE. The cells were washed 3 more times and incubated in 30 µl of 1/100 dilution of horseradish peroxidase (Molecular Probes, Eugene, Oreg.) conjugated to avidin for one hour at 37° C. After three final washes, 30 µl of 3,3',5,5'-tetramethylbenzidine (TMB) substrate, (Kirkegaard and Perry Laboratories, Gaithersburg, Md.) were added as a chromogenic substrate, and the plate was immediately transferred to the microtiter plate reader (Bio-Tek instruments, Winooski, Vt.) for analysis. The absorbance at 630 nm was measured every 60 seconds over a time span of 15 minutes. The rate of color development is an indication of the extent of IgE binding to the FcεRI receptor and was determined from the linear part of absorbance versus time graphs (data not shown). […] The inhibition activities of the RNA ligands were determined using the following formula: […]

The target of series [4] is T1, human IgE. The experiment in a line: filter; modified PBS, 1 mM Mg2+, 37 C. Particulars: tags: Athens Research Technology, chain copies: 2, label: 5' 32P. The procedure: (§1) Affinities of representative DNA ligands for human IgE were determined by nitrocellulose filter binding experiments and the K_Ds are listed in Table 7. […] Individual clones tested from this pool have affinities in the same range. The affinities were not expected to vary widely since the enriched DNA pool is very homogenous. Ligand D17.0 was picked for truncation experiments. […] However, the affinity could be restored to the level of the full-length ligand by the addition of a 4 basepair stem resulting in the 37 base truncate D17.4. It is possible that the stem in D17.1 is not stable enough to prevent the formation of an alternative secondary structure and that the additional base pair in D17.4 lock in the conformation necessary for IgE binding.

For series [5], the target named is T1, human IgE. The experiment in a line: filter; modified PBS, 1 mM Mg2+, 37 C; D2.0 taken as clone D002. The settings on record: tags: Athens Research Technology; chain copies: 2; label: 5' 32P. The procedure:
as §1

This is an account of results in patent US5686592, “High-affinity oligonucleotide ligands to immunoglobulin E (IgE)” (NeXstar Pharmaceuticals, Inc.).

B1: D31.0 (ssDNA)
DNA: CTACCTACGATCTGACTAGCACGGGTGAGTTGATCCGTCACTCTTAGTGGTGAACCTTGTGCTTACTCTCATGTAGTTCC
B1 yielded a Kd in the series with human IgE [1] of 22 nM.

B2: D11.0 (ssDNA)
DNA: CTACCTACGATCTGACTAGCACCGGAGTACTTCATCCGTCCCTTCTAGTGGGTACCCGTAGCTTACTCTCATGTAGTTCC
In the series with human IgE [2], B2 had a Kd of 8 nM.

B3: D17.0 (ssDNA)
DNA: CTACCTACGATCTGACTAGCCAATGAGTGTACCACGTTTATCCGTCCCTCCTAGTGGCGTGCTTACTCTCATGTAGTTCC
Consider B3, for which the Ki in series [3] (stem-loop) was ~40 nM. This molecule also yielded a Kd in the series with human IgE [4] (stem-loop) of 9 nM.
For GGGGCACGTTTATCCGTCCCTCCTAGTGGCGTGCCCC (ssDNA) [D17.4], in series [3] (hairpin), the Ki is ~40 nM. This molecule gave a Kd with human IgE [4] (hairpin) of 10 nM.

B4: D2.0 (ssDNA)
DNA: CTACCTACGATCTGACTAGCGGCCGGAGCTTTATCCGTTACTCTCAGTGGGTGACTGTCGCTTACTCTCATGTAGTTCC
B4 yielded a Kd with human IgE [5] of 6 nM.
